Measured values taken from patent publication US20240084003A1 (SIMCERE ZAIMING PHARMACEUTICAL, published 2024).

T1: human CD22-ECD-His protein (human, UniProt P20273 20-687)
T1 construct: Made in house in HEK293E; also called hCD22-ECD-His; recombinant human CD22-ECD His protein; not shown: His tag
T1 sequence: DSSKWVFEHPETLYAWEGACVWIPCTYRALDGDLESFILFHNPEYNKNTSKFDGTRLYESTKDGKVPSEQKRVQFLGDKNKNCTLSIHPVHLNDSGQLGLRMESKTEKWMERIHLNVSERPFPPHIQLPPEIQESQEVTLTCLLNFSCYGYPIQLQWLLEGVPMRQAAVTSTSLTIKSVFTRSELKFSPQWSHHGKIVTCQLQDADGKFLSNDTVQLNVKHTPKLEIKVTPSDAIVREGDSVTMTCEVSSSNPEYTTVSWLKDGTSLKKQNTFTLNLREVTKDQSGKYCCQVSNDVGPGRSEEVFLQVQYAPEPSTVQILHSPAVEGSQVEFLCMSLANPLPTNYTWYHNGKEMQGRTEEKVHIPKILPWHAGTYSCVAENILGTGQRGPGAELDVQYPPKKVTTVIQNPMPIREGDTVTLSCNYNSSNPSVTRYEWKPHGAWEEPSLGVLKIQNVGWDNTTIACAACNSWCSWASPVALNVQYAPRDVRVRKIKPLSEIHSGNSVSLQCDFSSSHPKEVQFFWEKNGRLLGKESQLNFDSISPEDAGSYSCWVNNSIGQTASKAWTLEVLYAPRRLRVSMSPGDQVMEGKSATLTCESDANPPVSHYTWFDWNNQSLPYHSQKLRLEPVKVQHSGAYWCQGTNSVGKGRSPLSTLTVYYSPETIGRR

T2: human CD22 domain5-7-His (human, UniProt P20273 414-687)
T2 construct: also called hCD22 domain5-7-His; not shown: His tag
T2 sequence: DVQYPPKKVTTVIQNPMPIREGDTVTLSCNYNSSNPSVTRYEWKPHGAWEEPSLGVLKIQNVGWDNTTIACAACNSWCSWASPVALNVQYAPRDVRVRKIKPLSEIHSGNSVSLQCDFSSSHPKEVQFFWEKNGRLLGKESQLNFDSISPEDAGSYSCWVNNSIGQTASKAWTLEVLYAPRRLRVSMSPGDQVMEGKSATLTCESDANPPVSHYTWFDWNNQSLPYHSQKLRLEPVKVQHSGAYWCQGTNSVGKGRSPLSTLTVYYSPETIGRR


Columns and labels:
[1] = target: T1, human CD22-ECD-His protein; test: ELISA, Ab 0.00001 nM
Procedure, shortened: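 TMB colour read-out, stopped with 1.0 N HCl after 30 min at room temperature, measures binding of CD22 human-murine chimeric antibodies to plate-coated CD22-ECD-His (2 μg/mL, overnight 4 °C). Antibody and HRP secondary steps each ran 2 h at 37 °C.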

[2] = target: T2, human CD22 domain5-7-His; test: ELISA, human CD22 domain5-7-His coated

Row | Binder | OD450 [1] | binding result [2] | EC50 (read off the curve) [2]
1 | F1.257.3 (antibody, human IgG1, kappa, V domains shown, Human-murine chimeric IgG1, kappa) VH: QVQLQQSGPELARPGASVKLSCKASGYTFTSYGISWVKQRTGQDLEWIGEIYPKLGTTYYNEKFKDKATLTTDRSSSTAYMALRSLTSEDSAVYFCACPHYYATRGGDYWGQGTTLTVSS VL: EIVLTQSPATLSVTPGDSVTFSCRASQSISNHLHWYQQKSHESPRLLIRYASQSISGIPSRFSGSGSGTDFTLSLSSVETEDFGVYFCQQSHSWPYTFGGGTKLEIAR | 0.2 OD450 | no binding (tested: 100 nM) | –
2 | F1.280.1 (antibody, human IgG1, kappa, V domains shown, Human-murine chimeric IgG1, kappa) VH: QIQLVQSGPELKKPGETVKISCKASGYTFTTYGMSWVKQTPGKGLTWMGWINTDSGVPTYADDFKRRFAFSLEASATTAYLQINNLKNEDTATYFCARGGPDYWGQGTTLTVSS VL: DILLTQSPATLSVTPGETVSLSCRASQSIYKNLHWYHQKSHRSPRLLIKYASDSISGIPSRFTGSGSGTNFTLSINSVKPEDEGIYYCLQGYIVPLTFGAGTKLELKR | 0.13 OD450 | no binding (tested: 100 nM) | –
3 | F2.55.1 (antibody, human IgG1, lambda, V domains shown, Human-murine chimeric IgG1, lambda) VH: QVTLKESGPGILQPSQTLSLTCSFSGFSLSTFPLGVGWIRQPSGKGLEWLAHVWWNDDDYYNPALKSRLTISKDTSNTRVFLSVASVDTAETATYYCARLNWDRWYFDVWGTGTTVTVSS VL: QLVLTQSSSASFSLGASAKLTCTLSSQHSAYTVEWYQQQPLKPPKYVMELKKDGSHSTGDGIPDRFSGSSSGADRYLSISNIQPEDEAIYICGVGDTVKEQFVFGGGTKVTVLG | 0.16 OD450 | no binding (tested: 100 nM) | –
4 | F1.224.1 (antibody, human IgG1, kappa, V domains shown, Human-murine chimeric IgG1, kappa) VH: EVLLHQSGPELVKPGASVKISCKASGYTFTDFNMDWVRQRHGQSLEWIGDVNPNNGGTIYNQKFKGKATLTVDKSSSTVYMDLRSLTSDDTAVYYCVRLGTSDYGEAWFISWGQGTVVTVSA VL: DIVLTQSPASLAVSLGQRATISCRASQSVSTPRYSFMHWYQQKPGQPPKLLIKYASNLESGFPARFTGSGSGTDFTLNIHPVEEEDTAAYYCQQSWAIPWTFGGGTKLEIKR | 0.17 OD450 | no binding (tested: 100 nM) | –
5 | F1.17.1 (antibody, human IgG1, kappa, V domains shown, Human-murine chimeric IgG1, kappa) VH: QVQLKESGPGLVAPSQSLSITCTVSGFSLSRYTVHWVRQPPGKGLEWLGMIWGGGSTDYNSALKSRLSISKDNSKSQVFLKMNSLQTDDTAMYYCARPHDFDAGGFAYWGQGTLVTVSA VL: QIVLTQSPAILSTSPGEKVTMTCSASSRVNYMYWYQQKPGSSPRLLIYDTSNLASGVPVRFSGSGSGTSYSLTISRMEAEDAATYYCQQWTSYPLTFGAGTKLELKR | 0.11 OD450 | no binding (tested: 100 nM) | –
6 | F2.205.9 (antibody, human IgG1, lambda, V domains shown, Human-murine chimeric IgG1, lambda) VH: QVTLKESGPGILQPSQTLSLTCSFSGFSLSTSGMGVGWIRQPSGKGLEWLAHIWWDDDEYYNPALKSRLTISKDTSKNQVFLKIANVDTADTATYYCARISIPYGYYDWFFDVWGTGTTVTVSA VL: QAVVTQESALTTSPGETVTLTCRSSTGAVTTRNYANWVQEKPDHLFTGLIGGTNNRAPGVPARFSGSLIGDKAALTITGAQTEDEAIYFCALWYSNHFIFGSGTKVTVLG | 0.19 OD450 | no binding (tested: 100 nM) | –
7 | F1.245.2 (antibody, human IgG1, kappa, V domains shown, Human-murine chimeric IgG1, kappa) VH: EVQLQQSGAELVKPGASVKLSCTGSGFNIKDYYIHWVKQRTEQGLEWMGRIDPEDGETEYAPKFQDEATITSDTSSNTAYLQLSSLTYEDTAVYYCAREAAGYFYRGSSYGYFDVWGTGTTVTVSS VL: DFQMTQTTSFLSASLGDRVTISCSASQDISNYLNWYQQKPDGTVKLLIYYTSSLHSGVPSRFSGSGSGTDYSLTISNLEPEDIATYYCQQYSMLPYTFGGGTKLEMER | 0.22 OD450 | no binding (tested: 100 nM) | –
8 | F2.343.16 (antibody, human IgG1, lambda, V domains shown, Human-murine chimeric IgG1, lambda) VH: QVQLKQSGPGLVQPSQSLSITCTVSGFSLTGYGVQWVRQSPGKGLEWLGVIWGGGGTDYNAAFISRLNIIKDNSKSQVFFKMNSLQADDTAIYYCARYSKYGHFDVWGTGTAVTVSS VL: QAVVTQESALTTSPGETVTLTCRSSTGAVTTSNYANWVQEKPDHLFTGLIGGTYNRVPGVPARFSGSLIGDKAALTITGAQTEDEAIYFCALWYSNHFWVFGGGTKLTVLG | 0.18 OD450 | no binding (tested: 100 nM) | –
9 | HA22-hIgG1 (antibody, V domains shown) VH: EVQLVESGGGLVKPGGSLKLSCAASGFAFSIYDMSWVRQTPEKCLEWVAYISSGGGTTYYPDTVKGRFTISRDNAKNTLYLQMSSLKSEDTAMYYCARHSGYGTHWGVLFAYWGQGTLVTVSA VL: DIQMTQTTSSLSASLGDRVTISCRASQDISNYLNWYQQKPDGTVKLLIYYTSILHSGVPSRFSGSGSGTDYSLTISNLEQEDFATYFCQQGNTLPWTFGCGTKLEIKR | 0.19 OD450 | no binding (tested: 100 nM) | –
10 | F1.120.15 (antibody, human IgG1, kappa, V domains shown, Human-murine chimeric IgG1, kappa) VH: QVQLQQSGPELVKPGASVKISCKASGNAFSNSWMNWVKQRPGKGLEWIGRVYSEDGDTQYNGKFRDKATLTADRSTSTAYMQLSSLTSEDSAVYFCARWLIYYGTYGAMDYWGQGTSVTVSS VL: DIQMTQTTSSLSASLGDRVTISCRASQDINNYLNWYHQKPDGTVKLLIYFTSRPYSGVPSRFSGSGSGTDYSLTISNLEQEDIATYFCQQGNTLPWTFGGGTKLEIKR | 0.12 OD450 | no binding (tested: 100 nM) | –
11 | F1.200.11 (antibody, human IgG1, kappa, V domains shown, Human-murine chimeric IgG1, kappa) VH: QNQLVQSGPELKKPGETVKISCKASGYTFTTAGMQWVQKMPGKGFKWIGWINTLSGEPKYAEDFKGRFAFSLETSATTAYLQISNLKNEDTATYFCARAYYSNLYWYFDVWGTGTTVTVSS VL: DIVMTQSQKFMSTTVGDRVTITCKASQNVVTAVAWYQQKPGQSPKVLIYSASNRYSGVPDRFTGSGSGTDFTLTISNMHSEDLANYFCHQYSSYPFTFGSGTKLEIKR | 0.33 OD450 | – | ~0.03 nM
12 | F2.70.2 (antibody, human IgG1, lambda, V domains shown, Human-murine chimeric IgG1, lambda) VH: EVQLVESGGGLVKPGGSLKLSCAASGFTFSDYGMNWFRQAPEKGLEWVAYISRGSHTIYYADTVKGRFTISRDNAKNTLFLQMTSLRSNDTAMYYCVRMAGYYAMDYWGQGTSVTVSS VL: QLVLTQSSSASFSLGASAKLTCTLSSQHSSYIIEWYQQQPLKPPKYVMELKKDGSHSTGDGIPDRFSGSSSGADRYLSISNIQPEDEAIYICGVGDTIKEQFVYVFGGGTKVTVLG | 0.09 OD450 | no binding (tested: 100 nM) | –
13 | F2.180.16 (antibody, human IgG1, lambda, V domains shown, Human-murine chimeric IgG1, lambda) VH: EVKLVESGGGLVLPGGSLKISCAASGFTFSDYYMYWIRQTPDKRLEWVAYISNTGYSTFYPDSVKGRFTVSRDNAKNTLYLQMSRLQSEDTAMYYCARHGILYAMDYWGQGTSVTVSS VL: QPVLTQSSSASFSLGASAKLTCTLSSQYSTYTIGWYQQQPLKPPKYVMELKHDGSRHTGDGIPDRFSGSSSGADRYLSISNIQPEDEATYICGVGDTIKEQFMYVFGGGTKVTVLG | 0.21 OD450 | – | –
14 | F2.104.10 (antibody, human IgG1, lambda, V domains shown, Human-murine chimeric IgG1, lambda) VH: EVQLVESGGGFVKPGGSLKLSCAASGFTFSDYGMNWFRQAPEKGLEWVAYISRGSHTIYYADTVKGRFTISRDNAENTLFLQMTSLRSNDTAMYYCVRMAGYYAMDYWGQGTSLTVSS VL: QLVLTQSSSASFSLGASAKLTCTLSSQHSSYIIEWYQQQPLKPPKYVMEVKKDGSHSTGDGIPDRFSGSSSGADRYLSISNIQSEDEAIYICGVGDTIKEQFVYVFGGGTKVTVLG | 0.22 OD450 | no binding (tested: 100 nM) | –
15 | F1.105.11 (antibody, human IgG1, kappa, V domains shown, Human-murine chimeric IgG1, kappa) VH: EVQLQQSGPVLVKPGASVKMSCKASGYTFSDYFMNWVKQSHGKSLEWIGIINSYSGGTSYNQKFKGKATLTVDKSSSTAYMELNSLTSEDSAVYYCARWMDYWGQGTSVTVSS VL: DVQITQSPSYLAASPGETITINCRTSESISKHLAWYQEKPGKTNKLLIYSGSTLQSGIPSRFSGSGSGTDFTLTISSLEPEDFAMYYCQQHNEYPWTFGGGTKLEIKR | 0.08 OD450 | – | ~0.1 nM
16 | F1.216.2 (antibody, human IgG1, kappa, V domains shown, Human-murine chimeric IgG1, kappa) VH: QVQLQQSGPEVVRPGASVKISCKASGYAFSSSWMNWMKQRPGKALEWIGRIYPGDGDTNYSGEFKVKATLTADKSSSTAYMQLSSLTSEDSAVYFCAREGSYYSNPWYFDYWGQGTTLTVSS VL: DVLVTQTPLSLPVSLGDQASISCRSSQSIVQSNGDTYLEWYLQKPGQSPKLLIYKVSNRFSGVPDRFSGSGSGTDFTLKISRVEAEDLGVYYCFQGSHVPFTFGSGTKLEIKR | 0.2 OD450 | no binding (tested: 100 nM) | –
